± gives the standard deviation of the averaged measurements.
Test: total protein half-life in vivo (active degradation + dilution); higher = more stable protein
[1] = E. coli NCM3722 delta-clpP, growth: N-lim chemostat, doubling time 6 h
[2] = E. coli NCM3722 delta-hslV, growth: N-lim chemostat, doubling time 6 h
[3] = E. coli NCM3722 delta-lon, growth: N-lim chemostat, doubling time 6 h
[4] = E. coli NCM3722 delta-smpB, growth: N-lim chemostat, doubling time 6 h
[5] = wild type E. coli NCM3722, growth: C-lim chemostat, doubling time 3 h
[6] = wild type E. coli NCM3722, growth: C-lim chemostat, doubling time 6 h
[7] = wild type E. coli NCM3722, growth: C-lim chemostat, doubling time 12 h
[8] = wild type E. coli NCM3722, growth: N-lim chemostat, doubling time 6 h
[9] = wild type E. coli NCM3722, growth: N-lim chemostat, doubling time 12 h
[10] = wild type E. coli NCM3722, growth: P-lim chemostat, doubling time 6 h
[11] = wild type E. coli NCM3722, growth: P-lim chemostat, doubling time 12 h
[12] = E. coli NCM3722 delta-clpP delta-lon delta-hslV, growth: N-lim chemostat, doubling time 6 h

Sequence | total protein half-life in vivo [1] [h] | total protein half-life in vivo [2] [h] | total protein half-life in vivo [3] [h] | total protein half-life in vivo [4] [h] | total protein half-life in vivo [5] [h] | total protein half-life in vivo [6] [h] | total protein half-life in vivo [7] [h] | total protein half-life in vivo [8] [h] | total protein half-life in vivo [9] [h] | total protein half-life in vivo [10] [h] | total protein half-life in vivo [11] [h] | total protein half-life in vivo [12] [h]
MKKVWLNRYPADVPTEINPDRYQSLVDMFEQSVARYADQPAFVNMGEVMTFRKLEERSRAFAAYLQQGLGLKKGDRVALMMPNLLQYPVALFGILRAGMIVVNVNPLYTPRELEHQLNDSGASAIVIVSNFAHTLEKVVDKTAVQHVILTRMGDQLSTAKGTVVNFVVKYIKRLVPKYHLPDAISFRSALHNGYRMQYVKPELVPEDLAFLQYTGGTTGVAKGAMLTHRNMLANLEQVNATYGPLLHPGKELVVTALPLYHIFALTINCLLFIELGGQNLLITNPRDIPGLVKELAKYPFTAITGVNTLFNALLNNKEFQQLDFSSLHLSAGGGMPVQQVVAERWVKLTGQYLLEGYGLTECAPLVSVNPYDIDYHSGSIGLPVPSTEAKLVDDDDNEVPPGQPGELCVKGPQVMLGYWQRPDATDEIIKNGWLHTGDIAVMDEEGFLRIVDRKKDMILVSGFNVYPNEIEDVVMQHPGVQEVAAVGVPSGSSGEAVKIFVVKKDPSLTEESLVTFCRRQLTGYKVPKLVEFRDELPKSNVGKILRRELRDEARGKVDNKA | 5.82 ± 0.16 | 5.05 ± 0.23 | 5.34 ± 0.82 | 4.279 ± 0.022 | 1.68 ± 0.16 | 3.98 ± 0.57 | 6.59 ± 0.46 | 4.879 ± 0.022 | 10.9 ± 1.6 | 4.93 ± 0.11 | 10.8 ± 1.1 | 
MKKWLLAAGLGLALATSAQAADKIAIVNMGSLFQQVAQKTGVSNTLENEFKGRASELQRMETDLQAKMKKLQSMKAGSDRTKLEKDVMAQRQTFAQKAQAFEQDRARRSNEERGKLVTRIQTAVKSVANSQDIDLVVDANAVAYNSSDVKDITADVLKQVK [P0AEU7] |  | 6.97 ± 1 | 6.66 ± 0.53 | 6.63 ± 0.26 | 3.15 ± 0.35 | 6 ± 0.15 | 10.3 ± 0.22 | 5.62 ± 0.57 | 13.4 ± 1.8 | 6.79 ± 1 | 13.7 ± 0.66 | 7.77 ± 0.22
MKLAHLGRQALMGVMAVALVAGMSVKSFADEGLLNKVKERGTLLVGLEGTYPPFSFQGDDGKLTGFEVEFAQQLAKHLGVEASLKPTKWDGMLASLDSKRIDVVINQVTISDERKKKYDFSTPYTISGIQALVKKGNEGTIKTADDLKGKKVGVGLGTNYEEWLRQNVQGVDVRTYDDDPTKYQDLRVGRIDAILVDRLAALDLVKKTNDTLAVTGEAFSRQESGVALRKGNEDLLKAVNDAIAEMQKDGTLQALSEKWFGADVTK [P0AEM9] | 5.74 ± 0.64 | 6.87 ± 0.34 | 7.33 ± 0.21 | 6.54 ± 0.16 | 3.47 ± 0.28 | 6.27 ± 0.63 | 12.5 ± 2.1 | 5.71 ± 0.61 | 14.1 ± 1.8 | 5.95 ± 0.58 | 14.49 ± 0.065 | 6.22 ± 0.52
MKLIITEDYQEMSRVAAHHLLGYMSKTRRVNLAITAGSTPKGMYEYLTTLVKGKPWYDNCYFYNFDEIPFRGKEGEGVTITNLRNLFFTPAGIKEENIQKLTIDNYREHDQKLAREGGLDLVVLGLGADGHFCGNLPNTTHFHEQTVEFPIQGEMVDIVAHGELGGDFSLVPDSYVTMGPKSIMAAKNLLIIVSGAGKAQALKNVLQGPVTEDVPASVLQLHPSLMVIADKAAAAELALG |  |  |  |  | 2.47 | 3.24 |  | 2.68 |  |  |  | 5.36 ± 0.6
MKLKTTLFGNVYQFKDVKEVLAKANELRSGDVLAGVAAASSQERVAAKQVLSEMTVADIRNNPVIAYEDDCVTRLIQDDVNETAYNQIKNWSISELREYVLSDETSVDDIAFTRKGLTSEVVAAVAKICSNADLIYGAKKMPVIKKANTTIGIPGTFSARLQPNDTRDDVQSIAAQIYEGLSFGVGDAVIGVNPVTDDVENLSRVLDTIYGVIDKFNIPTQGCVLAHVTTQIEAIRRGAPGGLIFQSICGSEKGLKEFGVELAMLDEARAVGAEFNRIAGENCLYFETGQGSALSAGANFGADQVTMEARNYGLARHYDPFIVNTVVGFIGPEYLYNDRQIIRAGLEDHFMGKLSGISMGCDCCYTNHADADQNLNENLMILLATAGCNYIMGMPLGDDIMLNYQTTAFHDTATVRQLLNLRPSPEFERWLESMGIMANGRLTKRAGDPSLFF [P0AEJ6] | 5.45 ± 0.56 | 4.07 ± 0.41 | 4.68 ± 0.12 | 3.91 ± 0.24 | 3.36 ± 0.3 | 6.26 ± 0.2 | 11.1 ± 0.83 | 3.82 ± 0.15 | 6.18 ± 0.099 | 6.37 ± 0.16 | 12 ± 0.84 | 5.95 ± 1.3
MKLNDSNLFRQQALINGEWLDANNGEAIDVTNPANGDKLGSVPKMGADETRAAIDAANRALPAWRALTAKERATILRNWFNLMMEHQDDLARLMTLEQGKPLAEAKGEISYAASFIEWFAEEGKRIYGDTIPGHQADKRLIVIKQPIGVTAAITPWNFPAAMITRKAGPALAAGCTMVLKPASQTPFSALALAELAIRAGVPAGVFNVVTGSAGAVGNELTSNPLVRKLSFTGSTEIGRQLMEQCAKDIKKVSLELGGNAPFIVFDDADLDKAVEGALASKFRNAGQTCVCANRLYVQDGVYDRFAEKLQQAVSKLHIGDGLDNGVTIGPLIDEKAVAKVEEHIADALEKGARVVCGGKAHERGGNFFQPTILVDVPANAKVSKEETFGPLAPLFRFKDEADVIAQANDTEFGLAAYFYARDLSRVFRVGEALEYGIVGINTGIISNEVAPFGGIKASGLGREGSKYGIEDYLEIKYMCIGL | 4.35 ± 0.32 | 3.93 ± 0.08 | 4.251 ± 0.0095 | 3.87 ± 0.14 | 2.86 ± 0.26 | 5.44 ± 0.58 | 9.938 ± 0.016 | 3.96 ± 0.29 | 5.95 ± 0.61 | 5.72 ± 0.12 | 11 ± 0.44 | 4.773 ± 0.035

From the supplement of paper PMC11246515
